This is an account of results in patent publication US20240398951A1 (WISTAR INSTITUTE OF ANATOMY AND BIOLOGY, published 2024).

The assay has as its target T1, human follicle stimulating hormone receptor (FSHR) (human, UniProt P23945 18-695).
T1 sequence (looked up): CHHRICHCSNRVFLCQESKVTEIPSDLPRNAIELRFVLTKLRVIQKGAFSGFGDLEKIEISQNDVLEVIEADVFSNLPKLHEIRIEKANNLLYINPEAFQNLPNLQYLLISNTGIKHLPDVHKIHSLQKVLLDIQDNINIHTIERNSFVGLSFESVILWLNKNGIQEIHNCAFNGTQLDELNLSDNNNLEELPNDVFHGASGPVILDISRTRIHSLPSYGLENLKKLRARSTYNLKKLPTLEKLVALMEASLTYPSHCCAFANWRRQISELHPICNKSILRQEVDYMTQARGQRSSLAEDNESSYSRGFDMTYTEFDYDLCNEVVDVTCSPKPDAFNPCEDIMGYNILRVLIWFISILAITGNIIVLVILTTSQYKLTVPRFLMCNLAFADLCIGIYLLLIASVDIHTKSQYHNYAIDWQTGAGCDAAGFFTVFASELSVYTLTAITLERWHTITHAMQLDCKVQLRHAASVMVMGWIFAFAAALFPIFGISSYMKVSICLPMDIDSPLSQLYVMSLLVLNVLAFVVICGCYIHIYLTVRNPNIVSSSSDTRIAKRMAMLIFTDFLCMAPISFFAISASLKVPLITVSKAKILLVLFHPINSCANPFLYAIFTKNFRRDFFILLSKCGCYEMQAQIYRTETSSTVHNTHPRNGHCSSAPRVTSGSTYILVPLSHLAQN
Briefly: cell-based or functional assay.

B1: D2AP11-TCE (FSHRxCD3 DNA encoded bispecific T cell engager) (bispecific antibody)
chain: DIQMTQSPSSLSASVGDRVTISCRASESVDNYGISFLNWFQQKPGKAPKLLIYAASNQRSGVPSRFSGSGSGTDFTLTISSLQPEDFATYFCQQSKEVPWTFGQGTKVEIKRGGGGSGGGGSGGGGSEVQLVESGGGLVQPGGSLRLSCSFSGFSLSTSGMGVGWIRQAPGKGLEWVAHIWWDDDKRYNPALKSRFTLSVDRSKNTLYLQMNSLRAEDTATYYCVQINYGNYRFDNWGHGTLVTVSSGGGGSEVQLVESGGGLVQPGGSLRLSCAASGYSFTGYTMNWVRQAPGKGLEWVALINPYKGVSTYNQKFKDRFTISVDKSKNTAYLQMNSLRAEDTAVYYCARSGYYGDSDWYFDVWGQGTLVTVSSGGGGSGGGGSGGGGSDIQMTQSPSSLSASVGDRVTITCRASQDIRNYLNWYQQKPGKAPKLLIYYTSRLESGVPSRFSGSGSGTDYTLTISSLQPEDFATYYCQQGNTLPWTFGQGTKVEIKSS
Turning to B1, the “EC50 of dose dependent killing of OVCAR3 cells (xCELLigence, human PBMCs/T cells)” value is 0.0159 mg/L; the “EC50 of dose dependent killing of OVISE-FSHR cells (xCELLigence, human PBMCs/T cells)” value is 0.0247 mg/L; the “EC50 of killing of OVCAR4 cells in presence of human PBMCs (xCELLigence)” value worked out at 0.0113 mg/L; the “potency of killing of OVCAR4 cells compared to the anti-FSHR ab D2AP11” value is approximately 1000 fold.
